Laboratory results taken from US20260232827A1, “ANTIBODY-DRUG CONJUGATES TARGETING NAPI2B AND METHODS OF USE” (Zymeworks BC Inc., priority 2023, published 2026).

Biological target: T1, human NaPi2b (Homo sapiens, UniProt O95436)
T1 construct: Full length human NaPi2b; host or cells: HEK293-6e
T1 sequence (O95436 1-690): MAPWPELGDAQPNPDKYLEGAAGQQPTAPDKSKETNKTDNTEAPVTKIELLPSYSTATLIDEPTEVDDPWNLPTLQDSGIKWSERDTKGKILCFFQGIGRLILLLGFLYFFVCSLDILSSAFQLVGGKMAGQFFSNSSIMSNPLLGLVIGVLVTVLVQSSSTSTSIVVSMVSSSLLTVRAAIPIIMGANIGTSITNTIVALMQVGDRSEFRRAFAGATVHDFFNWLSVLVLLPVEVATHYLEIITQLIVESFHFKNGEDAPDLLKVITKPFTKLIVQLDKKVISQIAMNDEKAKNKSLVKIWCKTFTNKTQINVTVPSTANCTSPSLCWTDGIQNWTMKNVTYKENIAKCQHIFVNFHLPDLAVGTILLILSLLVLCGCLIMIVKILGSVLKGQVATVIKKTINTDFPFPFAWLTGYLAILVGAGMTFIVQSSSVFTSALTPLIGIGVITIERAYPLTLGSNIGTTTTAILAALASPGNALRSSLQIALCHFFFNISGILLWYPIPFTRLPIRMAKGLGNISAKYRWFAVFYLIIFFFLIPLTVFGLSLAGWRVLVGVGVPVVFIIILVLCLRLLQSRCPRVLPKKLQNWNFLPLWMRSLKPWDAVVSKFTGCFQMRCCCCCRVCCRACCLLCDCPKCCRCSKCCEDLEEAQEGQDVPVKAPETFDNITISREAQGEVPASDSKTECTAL
Assay: Flow cytometry binding to transfected HEK293-6e cells
Settings: huNaPi2b (full length human NaPi2b), 24 hours at 4° C.
Method: The binding cross-reactivity of humanized antibody variant v29456 to human, cynomolgus and mouse NaPi2b was assessed by flow cytometry using HEK293-6e transfected cells.
Following staining and washing, fluorescence was detected by flow cytometry on BD LSRFortessa™ Cell Analyzer (BD Biosciences, Franklin Lake, NJ) with 10,000 minimum events collected per well. The AF647/APC-A GeoMean (fluorescence signal geometric mean, proportional to anti-Human AF647 binding) was calculated for the live singlet cell population for each primary antibody using FlowJo™ v8 software (BD Biosciences, Franklin Lake, NJ). The Bmax and Kd of each primary antibody were calculated using GraphPad Prism Version 9 (GraphPad Software, San Diego, CA)
(§1) Following incubation and washing, fluorescence was detected by flow cytometry on a BD LSRFortessa™ Cell Analyzer (BD Biosciences, Franklin Lake, NJ) with 1,000 minimum events collected per well.
as §1, §1

## palivizumab [palivizumab (v21995)]
Antibody 2.0 nM
  Background-Subtracted AF647 Mean Fluorescence Intensity: -22
Antibody 20.0 nM
  Background-Subtracted AF647 Mean Fluorescence Intensity: 13
Antibody 200.0 nM
  Background-Subtracted AF647 Mean Fluorescence Intensity: 19
